Data on one molecule can be found in patent US20060121042A1.

The experiment addresses hEphA2 (human) (UniProt P29317). Description: ELISA. Background: ELISA stands for enzyme-linked immunosorbent assay.

hEphA2 (human), sequence (P29317 25-534 limits assumed): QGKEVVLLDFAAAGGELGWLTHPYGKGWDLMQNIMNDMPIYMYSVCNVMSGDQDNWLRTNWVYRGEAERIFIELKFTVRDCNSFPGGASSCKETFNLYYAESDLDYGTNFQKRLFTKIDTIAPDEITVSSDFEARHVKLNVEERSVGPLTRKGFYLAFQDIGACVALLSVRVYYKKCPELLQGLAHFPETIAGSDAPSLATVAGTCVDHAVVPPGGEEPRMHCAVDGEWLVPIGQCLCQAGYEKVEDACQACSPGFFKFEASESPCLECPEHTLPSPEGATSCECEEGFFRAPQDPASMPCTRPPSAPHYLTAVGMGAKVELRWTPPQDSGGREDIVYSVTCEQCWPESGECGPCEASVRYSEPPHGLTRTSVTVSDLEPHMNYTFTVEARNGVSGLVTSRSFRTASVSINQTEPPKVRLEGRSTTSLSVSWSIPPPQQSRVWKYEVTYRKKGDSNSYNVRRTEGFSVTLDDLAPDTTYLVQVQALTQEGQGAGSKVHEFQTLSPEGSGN

B1: 3F2 (antibody, from another filing, V domains shown)
VH: EVQLVESGGGVVRPGGSLRLSCAASGFTVSDYSMNWVRQAPGKGLEWIGFIRNKANAYTTEYSASVKGRFTISRDDSKNTLYLQMNSLKTEDTAVYYCTTYPRYHAMDSWGQGTMVTVSS
VL: AIQLTQSPSSLSASVGDRVTITCRASQSISNNLHWYLQKPGQSPQLLIYYGFQSISGVPSRFSGSGSGTDFTLTISSLQPEDFATYYCQQANSWPLTFGGGTKLEIK
Turning to B1, the ELISA O.D. value was determined as 0.453.
